Source: patent publication US20060015959

Target: recombinant Tau (Panvera)

B1: full length human transglutaminase II (protein)
chain: MAEELVLERCDLELETNGRDHHTADLCREKLVVRRGQPFWLTLHFEGRNYEASVDSLTFSVVTGPAPSQEAGTKARFPLRDAVEEGDWTATVVDQQDCTLSLQLTTPANAPIGLYRLSLEASTGYQGSSFVLGHFILLFNAWCPADAVYLDSEEERQEYVLTQQGFIYQGSAKFIKNIPWNFGQFEDGILDICLILLDVNPKFLKNAGRDCSRRSSPVYVGRVVSGMVNCNDDQGVLLGRWDNNYGDGVSPMSWIGSVDILRRWKNHGCQRVKYGQCWVFAAVACTVLRCLGIPTRVVTNYNSAHDQNSNLLIEYFRNEFGEIQGDKSEMIWNFHCWVESWMTRPDLQPGYEGWQALDPTPQEKSEGTYCCGPVPVRAIKEGDLSTKYDAPFVFAEVNADVVDWIQQDDGSVHKSINRSLIVGLKISTKSVGRDEREDITHTYKYPEGSSEEREAFTRANHLNKLAEKEETGMAMRIRVGQSMNMGSDFDVFAHITNNTAEEYVCRLLLCARTVSYNGILGPECGTKYLLNLNLEPFSEKSVPLCILYEKYRDCLTESNLIKVRALLVEPVINSYLLAERDLYLENPEIKIRILGEPKQKRKLVAEVSLQNPLPVALEGCTFTVEGAGLTEEQKTVEIPDPVEAGEEVKVRMDLLPLHMGLHKLVVNFESDKLKAVKGFRNVIIGPA
In the case of B1, the “tau aggregation (high molecular weight total tau immunoreactive protein complex on western blot) in the transglutaminase activity assay” value is reported as “increased, Ca2+-dependent tau aggregation when recombinant tau was added to brain lysate from mice with overexpression of hTGII”.
